The series concerns the molecule itself. Put plainly: native MS.

B1: recombinant DK fragment (DUF3669 and KRAB domains; residues 1-191) of ZNF746 (domain or fragment)
chain: not shown
As to B1, the “stoichiometry N” value was determined as 3.

(Values after publication doi:10.1101/2025.03.01.640934 (bioRxiv, 2025).)
